Assay [1] relates to HeLa Tet3G cells. Description: Cell proliferation assays: rescue of the proliferation defect induced by respiratory chain inhibitors (nuclei counting). The conditions noted are these: for rescue of piericidin induced proliferation defect by supplementation: HeLa Tet3G Luciferase cells, compound added to medium, 3 days. The class given is cell-based, human. As for the experimental part:
Five hundred HeLa Tet3G NDI1, Luciferase, LbNOX or mitoLbNOX cells were seeded in 200 μl of DMEM (DMEM (US Biological, D9800), 3.7 g/L NaHCO3, 10% dialyzed FBS (Life Technologies, 26400-044)) per well in a black 96-well plate with clear bottom (Corning, 3904). Twenty four hours after seeding, media was exchanged to DMEM without pyruvate (DMEM (US Biological, D9802), 15.9 mg/L phenol red, 3.7 g/L NaHCO3, 10% dialyzed FBS (Life Technologies, 26400-044))±10 μg/ml chloramphenicol±30 ng/ml ethidium bromide±1 mM pyruvate±300 ng/ml doxycycline. After 0, 2, 3, 4, 5 and 6 days, media was aspirated and cells were fixed by adding 100 μl of 4% paraformaldehyde in PBS and incubating at room temperature for at least 30 min. Paraformaldehyde solution was aspirated and cells were stained with 200 μl of 1 μg/ml Hoechst 33345 in PBS. Plates were covered with sealing aluminum foil and stored at 4° C. before counting cells in each well with Molecular Dynamics IMAGEXPRESS® Ultra (see “Nuclei counting using Molecular Devices IMAGEXPRESS® Ultra,” below).
One thousand HeLa Tet3G NDI1, Luciferase, LbNOX or mitoLbNOX cells were seeded in 200 μl of DMEM (DMEM (US Biological, D9800), 3.7 g/L NaHCO3, 10% dialyzed FBS (Life Technologies, 26400-044)) per well in a black 96-well plate with clear bottom (Corning, 3904). Twenty four hours after seeding, 10 μl of 6 μg/ml doxycycline (300 ng/ml final concentration) or water was added to each well. Twenty four hours after addition of doxycycline, media was exchanged to DMEM without pyruvate (DMEM (US Biological, D9802), 15.9 mg/L phenol red, 3.7 g/L NaHCO3, 10% dialyzed FBS (Life Technologies, 26400-044)), ±1 μM piericidin, ±1 μM antimycin, ±1 mM pyruvate and ±300 ng/ml doxycycline. After 0, 1, 2, 3 and 4 days, media was aspirated and cells were fixed by adding 100 μl of 4% paraformaldehyde in PBS and incubating at room temperature for at least 30 min. Paraformaldehyde solution was aspirated and cells were stained with 200 μl of 1 μg/ml Hoechst 33345. Plates were covered with sealing aluminum foil and stored at 4° C. before counting cells in each well with Molecular Dynamics IMAGEXPRESS® Ultra (see “Nuclei counting using Molecular Devices IMAGEXPRESS® Ultra,” below).
Two thousand HeLa Tet3G Luciferase cells were seeded in 200 μl of DMEM (DMEM (US Biological, D9800), 3.7 g/L NaHCO3, 10% dialyzed FBS (Life Technologies, 26400-044)) per well in a black 96-well plate with clear bottom (Corning, 3904). Twenty four hours after seeding, media was exchanged to DMEM without pyruvate (DMEM (US Biological, D9802), 15.9 mg/L phenol red, 3.7 g/L NaHCO3, 10% dialyzed FBS (Life Technologies, 26400-044))±1 μM piericidin, ±indicated concentrations of pyruvate, lactate, malate, oxaloacetate, nicotinamide mononucleotide ([…]) or PJ34. After 3 days, media was aspirated and cells were fixed by adding 100 μl of 4% paraformaldehyde in PBS and incubating at room temperature for at least 30 min. Paraformaldehyde solution was aspirated and cells were stained with 200 μl of 1 μg/ml Hoechst 33345. Plates were covered with sealing aluminum foil and stored at 4° C. before counting cells in each well with Molecular Dynamics IMAGEXPRESS® Ultra (see “Nuclei counting using Molecular Devices IMAGEXPRESS® Ultra,” below).
Images of 96-well plates with fixed cells stained with Hoechst 33345 were collected using Molecular Devices IMAGEXPRESS® Micro XLS. Four images were taken to cover the whole well. Images were analyzed and nuclei number per well was counted using CellProfiler 2.0 image analysis software (Carpenter, et al., Genome Biol., 7:R100, 2006; and Kamentsky, et al., Bioinformatics, 27:1179, 2011). […]

Assay [2] deals with HeLa Tet3G cells. As to the kind of experiment: Glucose concentration-dependent cell survival. It counts as cell-based, human. Particulars: 1 μM piericidin, 24 hours. Here is the method: Images of 96-well plates with fixed cells stained with Hoechst 33345 were collected using Molecular Devices IMAGEXPRESS® Micro XLS. Four images were taken to cover the whole well. Images were analyzed and nuclei number per well was counted using CellProfiler 2.0 image analysis software (Carpenter, et al., Genome Biol., 7:R100, 2006; and Kamentsky, et al., Bioinformatics, 27:1179, 2011).
Ten thousand HeLa Tet3G NDI1, Luciferase, LbNOX or mitoLbNOX cells were seeded in 200 μl of DMEM (DMEM (US Biological, D9800), 3.7 g/L NaHCO3, 10% dialyzed FBS (Life Technologies, 26400-044)) per well of a black 96-well plate with clear bottom (Corning, 3904). Twenty four hours after seeding, 10 μl of 6 μg/ml doxycycline (300 ng/ml final concentration) or water was added to each well. Twenty four hours after addition of doxycycline, media was exchanged to DMEM (DMEM (US Biological, D9800), 3.7 g/L NaHCO3, 10% dialyzed FBS (Life Technologies, 26400-044))±300 ng/ml doxycycline. […] After 24 hours, media was aspirated and cells were fixed by adding 100 μl of 4% paraformaldehyde in PBS and incubating at room temperature for at least 30 min. Paraformaldehyde solution was aspirated and cells were stained with 200 μl of 1 μg/ml Hoechst 33345. Plates were covered with sealing aluminum foil and stored at 4° C. before counting cells in each well with Molecular Dynamics IMAGEXPRESS® Ultra (see “Nuclei counting using Molecular Devices IMAGEXPRESS® Ultra,” above).

For the molecule `CC(O)C(=O)O` (stereo not drawn) [lactate, reference compound], the “rescue of piericidin induced proliferation defect by supplementation” value (from here on “rescue … by supplementation”) in assay [1] (1 μM piericidin) is “do not”.

As to `NC(=O)c1ccc[n+]([C@@H]2O[C@H](COP(=O)([O-])O)[C@@H](O)[C@H]2O)c1` [PMN, nicotinamide mononucleotide, reference compound], the “rescue … by supplementation” value in assay [1] (1 μM piericidin) was “did not rescue”.

On to `O=C(O)CC(O)C(=O)O` (stereo not drawn) [malate, reference compound], for which the “rescue … by supplementation” value in assay [1] (1 μM piericidin) was “do not”.

In the case of `CN(C)CC(=O)Nc1ccc2[nH]c(=O)c3ccccc3c2c1` [PJ34, reference compound], the “rescue … by supplementation” value in assay [1] (1 μM piericidin) was “did not rescue”.

B1: Ndi1: yeast (S. cerevisiae) NADH dehydrogenase Ndi1 protein, positive control (protein, UniProt P32340 27-513, looked up)
Rotenone-insensitive …: STGVENSGAGPTSFKTMKVIDPQHSDKPNVLILGSGWGAISFLKHIDTKKYNVSIISPRSYFLFTPLLPSAPVGTVDEKSIIEPIVNFALKKKGNVTYYEAEATSINPDRNTVTIKSLSAVSQLYQPENHLGLHQAEPAEIKYDYLISAVGAEPNTFGIPGVTDYGHFLKEIPNSLEIRRTFAANLEKANLLPKGDPERRRLLSIVVVGGGPTGVEAAGELQDYVHQDLRKFLPALAEEVQIHLVEALPIVLNMFEKKLSSYAQSHLENTSIKVHLRTAVAKVEEKQLLAKTKHEDGKITEETIPYGTLIWATGNKARPVITDLFKKIPEQNSSKRGLAVNDFLQVKGSNNIFAIGDNAFAGLPPTAQVAHQEAEYLAKNFDKMAQIPNFQKNLSSRKDKIDLLFEENNFKPFKYNDLGALAYLGSERAIATIRSGKRTFYTGGGLMTFYLWRILYLSMILSARSRLKVFFDWIKLAFFKRDFFKGL
Consider B1, for which the “rescue of proliferation defect caused by ethidium bromide” value in assay [1] (30 ng/ml ethidium bromide, no pyruvate, doxycycline-inducible expression) is recorded as “not”. Moreover, the “rescue of proliferation defect caused by antimycin” value in assay [1] (1 μM antimycin, no pyruvate, doxycycline-inducible expression) is listed as “not”. Moreover, the “rescue of proliferation defect caused by piericidin” value in assay [1] (1 μM piericidin, no pyruvate, doxycycline-inducible expression) is “rescued”. In assay [1] (10 μg/ml chloramphenicol, no pyruvate, doxycycline-inducible expression), the “rescue of proliferation defect caused by chloramphenicol” value was “not”. Moreover, in assay [2], the “effect on decrease in cell number (cell survival) at low glucose concentrations in the presence of piericidin” value was “rescued”.

The values are drawn from patent publication US11866736B2, “Protein prostheses for mitochondrial diseases or conditions” (The General Hospital Corporation, priority 2015, dated 2024).
